In paper PMC10253321, “Effects of Phosphorylation on the Activity, Inhibition and Stability of Carbonic Anhydrases” (International Journal of Molecular Sciences, 2023):

Columns and labels:
[1] = Esterase activity assay in whole-cell lysates; assay type: biochemical, human; details: kcat/KM vs unmodified isoform
[2] = system: hCAII; parameters: method as in PMID 12713833; details: pH 7.8; cited from earlier work
[3] = system: hCAI; parameters: method as in PMID 12713833; details: pH 7.8; cited from earlier work
[4] = Differential scanning fluorimetry; assay type: physicochemical, human
Description: The diminished activity of hCAII^S29E and hCAI^S30E can be attributed to protein unfolding or misfolding upon introduction of a charged residue close to the hydrophobic side of the ligand-binding pocket. The phosphomimic hCAII^S29E was only expressed as a soluble protein when using ArcticExpress E. coli at 10 °C but not with T7 Express or C43 (DE3) E. coli. In ArticExpress cells, a cold-adapted chaperonin is co-expressed to assist folding at low temperatures. In addition, hCAI^S30E expresses at a very low yield in the soluble fraction even with the ArcticExpress system, and below detectable levels in T7 Express or C43 (DE3) E. coli. Moreover, an S > E mutation at Ser29 in another cytosolic carbonic anhydrase isoform (hCAIII) destabilizes the protein and decreases the melting temperature from 59 °C to 43 °C in differential scanning fluorimetry (Figure S5).

Molecule: hCAI S30E: human carbonic anhydrase I phosphomimic, Ser30 to Glu
- fold decrease in catalytic activity compared to the respective unmodified isoform [1]: 2.7 fold

Molecule: CC(=O)Oc1ccc([N+](=O)[O-])cc1 [pNPA, p-nitrophenyl acetate]
- Km [2]: 2.92 mM
- Km [3]: 15.4 mM

B1: hCAIII: cytosolic human carbonic anhydrase isoform III (protein, UniProt P07451 2-260, looked up)
Carbonic anhydrase 3: AKEWGYASHNGPDHWHELFPNAKGENQSPVELHTKDIRHDPSLQPWSVSYDGGSAKTILNNGKTCRVVFDDTYDRSMLRGGPLPGPYRLRQFHLHWGSSDDHGSEHTVDGVKYAAELHLVHWNPKYNTFKEALKQRDGIAVIGIFLKIGHENGEFQIFLDALDKIKTKGKEAPFTKFDPSCLFPACRDYWTYQGSFTTPPCEECIVWLLLKEPMTVSSDQMAKLRSLLSSAENEPPVPLVSNWRPPQPINNRVVRASFK
- melting temperature [4]: 59 °C
